Target: HCoV-OC43 Spike antigen (HCoV-OC43) (UniProt P36334)
Test: SEC-MALS

Substance: HCoV-OC43 Spike antigen (from UniProt P36334 14-1353) (natural protein)
- stoichiometry N: 3

From PMC10889886
